The record followed here is US20030235860A1, “Interactions between AR, ER, TR2, and TR4” (priority 1999, published 2003).

Experiment [1] deals with T1, interaction between AR and TR4 (Homo sapiens, UniProt P10275, DEL79-80/DUP473-473).
T1 construct: A full-length AR(pSG5AR) was co-transfected with GAL4-TR4E; expressed in transfected cells; host or cells: H1299
The experiment is described as follows: Modified mammalian one-hybrid system pSG5AR / GAL4-TR4E. Format: cell-based. To be noted: 1 μM of anti androgen. On the procedure: A full-length AR(pSG5AR) was co-transfected with GAL4-TR4E and PG5-Luc reporter in H1299 cells (pSG5AR, pSG5GR, pSG5PR, disclosed in Yeh et al., Proc Natl. Acad. Sci., 93:5517-5521 (1996), which is herein incorporated by reference at least for material related to plasmids and assays, including sequence).
Transfection was performed by a modified calcium phosphate precipitation method. The pRL-TK plasmid was co-transfected for normalization of transfection efficiency.

A further experiment addresses T2, TR2 (Homo sapiens, UniProt P13056).
T2 sequence (P13056 1-603): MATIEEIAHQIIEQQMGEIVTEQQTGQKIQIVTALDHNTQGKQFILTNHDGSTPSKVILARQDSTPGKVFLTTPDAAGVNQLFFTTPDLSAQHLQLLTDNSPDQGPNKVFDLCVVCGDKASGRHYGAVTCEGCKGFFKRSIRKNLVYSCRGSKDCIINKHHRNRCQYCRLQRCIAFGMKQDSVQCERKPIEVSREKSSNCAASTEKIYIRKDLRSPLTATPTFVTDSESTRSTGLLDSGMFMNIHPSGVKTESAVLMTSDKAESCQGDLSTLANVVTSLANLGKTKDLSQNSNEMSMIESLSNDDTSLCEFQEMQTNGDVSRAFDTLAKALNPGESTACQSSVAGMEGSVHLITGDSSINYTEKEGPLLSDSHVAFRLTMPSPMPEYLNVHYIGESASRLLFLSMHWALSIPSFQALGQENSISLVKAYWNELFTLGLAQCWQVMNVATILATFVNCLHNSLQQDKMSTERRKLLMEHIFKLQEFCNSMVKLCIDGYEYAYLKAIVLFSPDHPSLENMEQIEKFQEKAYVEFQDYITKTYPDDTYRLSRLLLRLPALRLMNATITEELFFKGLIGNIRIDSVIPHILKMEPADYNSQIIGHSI
The experiment in a line: TR2-mediated transactivation reporter assay. The experiment is classed as cell-based. As to conditions: H1299 cells; absence or presence of E2. The protocol: Transfections and chloramphenicol acetyltransferase (CAT) assays were performed as described previously. Yeh, & Chang, Proc. Natl. Acad. Sci. 93, 5517-5521 (1996). Briefly, 4×10^5 cells were plated in 60-mm dishes and cultured for 24 h, and then the medium was changed to phenol red free DMEM with 5% charcoal-stripped FCS 2 h before transfection. The cells were co-transfected with TR2 and/or ER expression plasmids with 2 μg of TR2-TK-CAT reporter or 1 μg of ERE-CAT reporter gene plasmid, as indicated in the Figures, by using the calcium phosphate precipitation method. A β-gal actosidase expression plasmid, pCMV-β-gal, was transfected in all transfections as an internal control for normalizing transfection efficiency. The total amount of DNA was adjusted up to 10.5 μg with parent vectors, pSG5 or pCMV in each transcriptional activity assay. […] The cells were then harvested and whole cell extracts were used for CAT assay. The CAT activity was quantitated by Phosphorlmager (Molecular Dynamics). Data are presented as means±S.D. of at least three independent experiments.
The CAT reporter assay was used to study the potential consequence of the formation of heterodimers between the TR2 and ER. […] More specifically, H1299 cells were transiently cotransfected with 2 μg of DR4-TK-CAT reporter plasmid and 3 μg of TR2 expression plasmid together with increasing amounts of the ER expression vector. […] Cells were also transfected with internal control reporter plasmid, pCMV-β-gal, as an internal control for transfection efficiency. Luciferase activity was then analyzed following manufacturer's instructions (Promega). […] Similar results were obtained when the DR4-TK-CAT reporter with DR1-HBV-LUC were replaced, another TR2 response element (FIG. 7C).
This conclusion was further confirmed by using the chimera receptor, TR2-androgen receptor (AR) ARp-TR2, which was generated by swapping TR2 proximal box (P-box) with that found in the AR. […] Luciferase activity was then analyzed following manufacturer's instructions (Promega). […]

A further experiment addresses T3, TR4 (Homo sapiens, UniProt P49116).
T3 construct: full-length AR and TR4 in eukaryotic expression vectors (pSG5AR and pCMXTR4) were co-transfected; expressed in transfected cells; host or cells: H1299, HepG2
T3 sequence (P49116 1-615 isoform P49116-2 N175S/W419R/A428G/K503N/L504W/A613V): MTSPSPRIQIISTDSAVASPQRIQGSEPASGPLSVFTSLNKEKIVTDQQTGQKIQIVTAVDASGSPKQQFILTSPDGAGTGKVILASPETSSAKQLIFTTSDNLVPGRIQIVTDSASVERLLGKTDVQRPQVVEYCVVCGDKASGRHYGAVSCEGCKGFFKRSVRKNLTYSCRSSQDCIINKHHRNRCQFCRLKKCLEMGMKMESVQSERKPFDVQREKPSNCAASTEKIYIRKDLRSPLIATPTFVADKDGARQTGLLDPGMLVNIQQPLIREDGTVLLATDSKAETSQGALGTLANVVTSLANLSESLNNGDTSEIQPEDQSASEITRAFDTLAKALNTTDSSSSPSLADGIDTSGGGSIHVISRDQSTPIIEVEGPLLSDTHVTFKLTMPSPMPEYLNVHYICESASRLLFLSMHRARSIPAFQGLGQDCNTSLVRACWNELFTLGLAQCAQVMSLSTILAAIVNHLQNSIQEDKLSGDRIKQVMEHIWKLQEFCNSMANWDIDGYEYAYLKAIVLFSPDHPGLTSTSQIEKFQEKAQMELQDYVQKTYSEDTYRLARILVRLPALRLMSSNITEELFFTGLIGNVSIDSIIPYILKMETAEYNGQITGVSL
The experiment is described as follows: TR4-mediated transactivation reporter assay. The experiment is classed as cell-based. As to conditions: H1299 cells; absence or presence of DHT. On the procedure: Cells were routinely maintained in DMEM with 10% heat-inactivated fetal bovine serum. The cells were transfected using a modified calcium phosphate precipitation method, Mizokami, & Chang, J: Biol. Chem. 269,25655-25659 (1994), or SuperFect (Qiagen). To normalize the transfection efficiency, the (3-galactosidase expression ver and pRL-TK were co-transfected in CAT assay and in Dual-luciferase reporter assay system (Promega), respectively.
More specifically, 500 ng of reporter plasmids were co-transfected(DR4-CAT and CNTFR-15-LUC) with 200 ng of pCMX-TR4 and increasing amounts of pCMV-AR (200, 600, and 1,200 ng), pSG5GR (1,200 ng), or pSG5 PR (1,200 ng) using the SuperFect transfection kit (Qiagen) (PCMV AR Mowszowicz et al., (1993) Molecular Endocrinology 7:861:869). […] Similar results were obtained when the DR4-TK-CAT reporter was replaced with DR1-CNTFR-15-LUC, another TR4 response element (FIG. 3A). Young, et al., J: Biol. Chem. 272,3109-3116 (1997).
Another TR4 potential target gene, which is located in the hepatitis B virus (HBV) enhancer II region (−34 to −7) containing a classic DR1 motif. Breidbart, et al., Pediatric Res. 34,300-302 (1993), was investigated. The reporter plasmid CpFL(4)-LUC, which contains the HBV core promoter (Cp) sequence located between −34 and −7 (nucleotide coordinates 1751 and 1778 derived from the Genbank database) was shown above in FIG. 3B. The arrows indicate the DRI motif in HBV core promoter. HepG2 cells were co-transfected with 1.5 μg CpFL(4)-LUC reporter and 0.5 μg pCMX-TR4, with increasing amounts of pCMV-AR (0.5, 2.5, and 5 μg) by modified calcium phosphate precipitation method. The relative reporter gene activities were compared to the CAT activities (or luciferase activities) with vector alone. To normalize the transfection efficiency, the β-galactosidase expression vector and pRL-TK were co-transfected in the CAT assay and in the Dual-luciferase reporter assay system (Promega), respectively.

The target of experiment [2] is T4, TR4 orphan receptor (TR4), full-length (human, UniProt P49116 1-596).
T4 construct: Full-length TR4; 35S-labeled when in vitro translated, expressed from plasmids in the cell assays; also called pCMX-TR4; pCMV-TR4
T4 sequence: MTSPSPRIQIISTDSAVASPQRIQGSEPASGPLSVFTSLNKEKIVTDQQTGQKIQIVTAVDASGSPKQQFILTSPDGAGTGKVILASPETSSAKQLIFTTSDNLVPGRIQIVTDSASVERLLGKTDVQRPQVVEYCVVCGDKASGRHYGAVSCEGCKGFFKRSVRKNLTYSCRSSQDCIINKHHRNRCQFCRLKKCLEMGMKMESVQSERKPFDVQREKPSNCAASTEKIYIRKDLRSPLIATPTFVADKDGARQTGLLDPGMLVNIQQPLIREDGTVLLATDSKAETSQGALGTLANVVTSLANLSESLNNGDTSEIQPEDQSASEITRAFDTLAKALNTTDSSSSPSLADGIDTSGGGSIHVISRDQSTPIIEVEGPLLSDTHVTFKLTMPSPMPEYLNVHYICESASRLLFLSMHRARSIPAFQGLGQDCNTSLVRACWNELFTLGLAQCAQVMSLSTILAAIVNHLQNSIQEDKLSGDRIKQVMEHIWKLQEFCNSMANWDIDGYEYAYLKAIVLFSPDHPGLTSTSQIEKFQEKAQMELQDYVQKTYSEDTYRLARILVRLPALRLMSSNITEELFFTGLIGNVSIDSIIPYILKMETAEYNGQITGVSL
The experiment is described as follows: Table 4, summary of interactions tested; assay not given.

T1 sequence (P10275 with tags, fused parts or gaps DEL79-80/DUP473-473): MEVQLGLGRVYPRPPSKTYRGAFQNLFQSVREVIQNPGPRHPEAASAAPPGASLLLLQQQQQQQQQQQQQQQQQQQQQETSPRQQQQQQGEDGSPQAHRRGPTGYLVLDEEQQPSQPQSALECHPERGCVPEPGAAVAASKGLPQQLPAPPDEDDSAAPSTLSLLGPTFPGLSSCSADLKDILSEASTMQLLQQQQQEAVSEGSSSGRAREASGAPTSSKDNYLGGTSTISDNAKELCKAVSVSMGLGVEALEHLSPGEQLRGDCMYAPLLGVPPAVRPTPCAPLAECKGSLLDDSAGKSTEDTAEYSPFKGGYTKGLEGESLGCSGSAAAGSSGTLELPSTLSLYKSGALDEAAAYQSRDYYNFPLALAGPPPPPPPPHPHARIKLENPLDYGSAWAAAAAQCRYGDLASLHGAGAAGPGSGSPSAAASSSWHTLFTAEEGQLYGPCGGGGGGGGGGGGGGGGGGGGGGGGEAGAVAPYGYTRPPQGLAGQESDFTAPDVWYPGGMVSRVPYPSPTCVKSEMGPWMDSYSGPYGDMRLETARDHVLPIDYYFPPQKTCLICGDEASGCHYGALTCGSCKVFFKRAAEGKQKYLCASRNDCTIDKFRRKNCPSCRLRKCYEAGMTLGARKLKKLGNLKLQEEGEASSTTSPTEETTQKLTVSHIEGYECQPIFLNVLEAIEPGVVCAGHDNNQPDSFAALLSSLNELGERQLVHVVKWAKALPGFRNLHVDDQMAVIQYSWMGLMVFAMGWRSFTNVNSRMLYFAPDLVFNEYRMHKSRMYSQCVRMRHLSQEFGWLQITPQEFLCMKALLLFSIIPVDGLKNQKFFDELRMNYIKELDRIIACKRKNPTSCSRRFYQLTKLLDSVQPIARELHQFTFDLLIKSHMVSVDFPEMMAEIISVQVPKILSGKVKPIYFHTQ

As for `CC(C)(O)C(=O)Nc1ccc([N+](=O)[O-])c(C(F)(F)F)c1` [hydroxyflutamide], the “Effect on DHT-enhanced interaction between AR and TR4” value in experiment [1] is “abolish”. The same measure, in the same setting: the same measure for `CC1(C)C(=O)N(c2ccc(C#N)c(C(F)(F)F)c2)C(=O)N1CCCCO` [RU58841]: “abolish”.

With GR: glucocorticoid receptor, the “CAT activity induced by pCMV-TR2 (DR4-TK-CAT; similar with DR1-HBV-LUC)” value with TR2 is “no suppressive effect”. In the experiment with TR4, the “CAT activity induced by pCMXTR4 (DR4-TK-CAT; similar with DR1-CNTFR-I5-LUC)” value is recorded as “no suppressive effects”.

B1: PR: progesterone receptor (protein)
chain: MTELKAKGPRAPHVAGGPPSPEVGSPLLCRPAAGPFPGSQTSDTLPEVSAIPISLDGLLFPRPCQGQDPSDEKTQDQQSLSDVEGAYSRAEATRGAGGSSSSPPEKDSGLLDSVLDTLLAPSGPGQSQPSPPACEVTSSWCLFGPELPEDPPAAPATQRVLSPLMSRSGCKVGDSSGTAAAHKVLPRGLSPARQLLLPASESPHWSGAPVKPSPQAAAVEVEEEDGSESEESAGPLLKGKPRALGGAAAGGGAAAVPPGAAAGGVALVPKEDSRFSAPRVALVEQDAPMAPGRSPLATTVMDFIHVPILPLNHALLAARTRQLLEDESYDGGAGAASAFAPPRSSPCASSTPVAVGDFPDCAYPPDAEPKDDAYPLYSDFQPPALKIKEEEEGAEASARSPRSYLVAGANPAAFPDFPLGPPPPLPPRATPSRPGEAAVTAAPASASVSSASSSGSTLECILYKAEGAPPQQGPFAPPPCKAPGASGCLLPRDGLPSTSASAAAAGAAPALYPALGLNGLPQLGYQAAVLKEGLPQVYPPYLNYLRPDSEASQSPQYSFESLPQKICLICGDEASGCHYGVLTCGSCKVFFKRAMEGQHNYLCAGRNDCIVDKIRRKNCPACRLRKCCQAGMVLGGRKFKKFNKVRVVRALDAVALPQPVGVPNESQALSQRFTFSPGQDIQLIPPLINLLMSIEPDVIYAGHDNTKPDTSSSLLTSLNQLGERQLLSVVKWSKSLPGFRNLHIDDQITLIQYSWMSLMVFGLGWRSYKHVSGQMLYFAPDLILNEQRMKESSFYSLCLTMWQIPQEFVKLQVSQEEFLCMKVLLLLNTIPLEGLRSQTQFEEMRSSYIRELIKAIGLRQKGVVSSSQRFYQLTKLLDNLHDLVKQLHLYCLNTFIQSRALSVEFPEMMSEVIAAQLPKILAGMVKPLLFHKK
Consider B1, for which the “CAT activity induced by pCMV-TR2 (DR4-TK-CAT; similar with DR1-HBV-LUC)” value in the experiment with TR2 is recorded as “no suppressive effect”. Moreover, the “CAT activity induced by pCMXTR4 (DR4-TK-CAT; similar with DR1-CNTFR-I5-LUC)” value with TR4 is “no suppressive effects”.

B2: estrogen receptor (ER), full-length (receptor)
chain: MTMTLHTKASGMALLHQIQGNELEPLNRPQLKIPLERPLGEVYLDSSKPAVYNYPEGAAYEFNAAAAANAQVYGQTGLPYGPGSEAAAFGSNGLGGFPPLNSVSPSPLMLLHPPPQLSPFLQPHGQQVPYYLENEPSGYTVREAGPPAFYRPNSDNRRQGGRERLASTNDKGSMAMESAKETRYCAVCNDYASGYHYGVWSCEGCKAFFKRSIQGHNDYMCPATNQCTIDKNRRKSCQACRLRKCYEVGMMKGGIRKDRRGGRMLKHKRQRDDGEGRGEVGSAGDMRAANLWPSPLMIKRSKKNSLALSLTADQMVSALLDAEPPILYSEYDPTRPFSEASMMGLLTNLADRELVHMINWAKRVPGFVDLTLHDQVHLLECAWLEILMIGLVWRSMEHPVKLLFAPNLLLDRNQGKCVEGMVEIFDMLLATSSRFRMMNLQGEEFVCLKSIILLNSGVYTFLSSTLKSLEEKDHIHRVLDKITDTLIHLMAKAGLTLQQQHQRLAQLLLILSHIRHMSNKGMEHLYSMKCKNVVPLYDLLLEMLDAHRLHAPTSRGGASVEETDQSHLATAGSTSSHSLQKYYITGEAEGFPATV
notes: 35S-labeled when in vitro translated for the pull-downs; endogenous in MCF7 cells for the co-immunoprecipitation; also called ERα; pSG5-ER
In the case of B2, in experiment [2], the binding result is “binds”.
